Data reported in patent publication US20050282743A1, “Molecular interactions in cells” (Arbor Vita Corporation, priority 2001, published 2005).
Where a name gives a salt, the structure may show the parent alone. Values belong to the compound of their own block, whether it stands above or below them. Ends that are not written are not given here. * marks the point of attachment. Biotin = O=C1N[C@H]2[C@H](CS[C@H]2CCCCC(=O)*)N1

What was measured:
Type in all cases: binding
[1] = molecular target: T1, ZO-2 (1/3) : DNAM (22L) (Homo sapiens, UniProt Q9UDY2); assay: G assay with FDA approved drug (Example 7, TABLE 10B)
T1 construct: made in house; host or cells: E. coli (DH5α, BL21 or JM109)
T1 sequence (Q9UDY2 27-122): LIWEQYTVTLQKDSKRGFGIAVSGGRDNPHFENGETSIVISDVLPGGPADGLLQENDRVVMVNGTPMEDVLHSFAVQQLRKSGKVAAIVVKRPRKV
Protocol: For certain of the PDZ proteins and PL proteins shown to bind together and for which Kd values had been obtained, additional testing was conducted to determine whether certain pharmaceutical compounds would act to antagonize or agonize the interactions. Assays were conducted as for the G′ assay described supra both in the presence and absence of test compound, except that 50 ul of a 10 uM solution of the biotinylated PL peptide is allowed to react with the surface bearing the PDZ-domain polypeptide instead of a 20 uM solution as specified in step (2) of the assay.
In both tables, the first column (left to right) entitled “PDZ domain” lists the gene name of GST-PDZ domain fusion (see TABLE 9). Entries having two numbers separated by a slash indicate which PDZ domain was utilized. For example, in TABLE 10A, the entry for ZO-3 is 1/3. This means that PDZ domain 1 of 3 was used.
The second column labeled “PL” indicates the name of the PDZ ligand (see TABLES 10A and 10B) interacting with the PDZ domain. The third column entitled “Drug” lists the common or trade name of pharmaceutical compound tested and found to modulate the specific PDZ-PL interaction (suppliers and chemical information are listed in TABLE 11). The final column with the heading “Change in OD” indicates the change in absorbance at 450 nm of the assay in the absence (first number) or presence (second number) of chemical compound.
Many FDA approved drugs have unknown mechanism of function. It is quite possible that some of these drugs function by disrupting or increasing PDZ/PL interactions. This possibility was examined by using the ‘G Assay’ (Example 3 section D). FDA approved drugs were incubated in the presence of the labeled peptide and compared to the same interaction without drug to determine if there was an effect on specific PDZ:PL interactions (drugs added with peptide at step 9 in Example 3D). The primary focus of this experiment was on drugs involved in treatment of depression (amitriptyline, desipramine, trimipramine, benztropine, and nortryptilline) and epilepsy (valproic acid). No modes of action are known for these drugs.
Therapeutic dose was determined by guidelines given in the Physician's Desk Reference and in the assay, 200 times this amount was used. If a dosage range was given, the upper end of the range was used. Each interaction listed in TABLES 10A & B was tested in the ‘G Assay’ (see Example 3) against each of the drugs listed in TABLE 11. The concentration of GST-fusion protein and peptide used in the assay represent the Kd and were determined by titration. These values can be found in TABLE 7. The drugs were added to the peptide before addition to the well containing the PDZ protein. Otherwise, the assay was carried out as described and read at 450 nm after 30 minutes of developing. For the sequences of the PDZs and PLs used in these tests, see TABLES 8 & 9.
List of interactions and therapeutics for which a modulation of binding was observed. Concentrations at which the GST-PDZ fusion protein and labeled peptide were used can be found in Table 7 or Table 12.

[2] = molecular target: T2, TIP-1 (GST-TIP-1) (Homo sapiens, UniProt O14907, I73S); assay: G assay with unlabeled 8 amino acid competitor peptide (Example 4, FIGS. 2B, 2C)
T2 construct: made in house; host or cells: E. coli DH5alpha
T2 sequence (O14907 3-123 I73S): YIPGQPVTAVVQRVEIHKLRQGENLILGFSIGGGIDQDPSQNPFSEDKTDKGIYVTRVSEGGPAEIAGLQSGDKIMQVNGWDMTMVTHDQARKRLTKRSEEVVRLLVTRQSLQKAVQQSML
Protocol: FIGS. 2A, 2B and 2C show binding and competition assays with the PDZ ligands of CD95 (Fas) and Tax for the PDZ domain of TIP-1.
Upon infection, the higher affinity of Tax could preferentially bind TIP-1 protein available in the cell, removing the TIP-1 bound to CD95 (Fas) and thereby rendering the cell less able to undergo apoptosis. In order to test this, competition experiments between Tax and CD95 for TIP-1 binding were performed using the ‘G Assay’, but adding additional unlabeled competitor peptide at step 9 of the ‘G Assay’ presented in EXAMPLE 3 section D.
FIGS. 2B and 2C show the results of these experiments. The graphs show the amount of binding of the biotinylated 20 amino acid peptide in the presence of increasing concentrations of unlabeled 8 amino acid competitor.

[3] = molecular target: T3, PSD-95 (Homo sapiens, UniProt P78352); assay: G assay competition of short unlabeled peptides with biotinylated 20-mers (Example 6, TABLE 6); details: competitor 50 uM, 100 = no competitor
T3 construct: protein spans from amino terminal end of first PDZ domain to carboxy-terminal end of third PDZ domain in frame with GST in vector; made in house; host or cells: E. coli DH5alpha
Excerpt: (§1) The potential for unlabeled 8-mers and 3-mers to compete for binding with biotinylated 20-mers to PDZ domains was examined. Interactions between a PDZ domain and two or more biotinylated peptides mimicking PDZ ligands identified through the ‘G Assay’ were used as model interactions. Short, 3 or 8 amino acid, unlabeled peptides were synthesized by standard techniques and used at variable concentrations with a set concentration of biotinylated 20-mer. Ability of both the 3-mer and 8-mer to inhibit longer peptide binding was observed, making PDZ:PL interactions an attractive target for design of small molecule or peptide therapeutics.
(§2) Peptides representing the C-terminal 3, 8 or 20 amino acids of a PDZ ligand were synthesized by standard FMOC chemistry and biotinylated if not used as an unlabeled competitor. Peptides three amino acids in length were acetylated to more properly mimic the peptide bond without introducing an amino-terminal charged group. Peptides were purified by reverse phase high performance liquid chromatography (HPLC) using a Vydac 218TP C18 Reversed Phase column having the dimensions of 10*25 mm, 5 um. Approximately 40 mg of peptide was dissolved in 2.0 ml of and aqueous solution of 49.9% acetonitrile and 0.1% Tri-Fluoro acetic acid (TFA). This solution was then injected into the HPLC machine through a […] syringe filter (Millipore). Buffers used to get a good separation are (A) distilled water with 0.1% TFA and (B) 0.1% TFA with Acetonitrile.
(§3) The G Assay was performed as described in EXAMPLE 3 with the exception that when a short competitor was used, 30 ul of competitor peptide (at twice the final concentration) was mixed with 30 ul biotinylated 20-mer (at twice the final concentration) and then added to the well.
(§4) PSD-95 and DLG-1 were incubated in the wells at 5 ug/ml as described in the G Assay protocol. Biotinylated 20-mer peptides used were 20 uM CLASP-2, 20 uM CD46, 10 uM CD95, and 10 uM KV1.3 (find sequences of peptides in TABLE 8). Competitors (unlabeled, short peptides) tested against each of the biotinylated peptides were 50 uM 8-mer of CD95, 100 uM 8-mer of CD46, 50 uM 8-mer of CLASP-2, and 1 mM and 500 uM acetylated 3-mer of CLASP-2. To deduce sequences, refer to TABLE 8. All absorbances were read at 450 nm after stopping TMB detection reaction at 30 min. Results were normalized in each group by dividing its A450 by the A450 of the PDZ/peptide binding in the absence of competitor and converting to percentage by multiplying by 100.

[4] = molecular target: T4, DLG-1 (Homo sapiens, UniProt Q12959); assay: as above; details: competitor 50 uM; for % binding: 100 = no competitor
T4 construct: protein spans from amino terminal end of first PDZ domain to carboxy-terminal end of third PDZ domain in frame with GST in vector; made in house; host or cells: E. coli DH5alpha
Excerpt: as §1, §2, §3, §4

[5] = molecular target: T5, PDZ protein (GST-PDZ fusion) (Homo sapiens, UniProt Q13796); assay: G' assay (10 uM PL peptide), results of TABLE 7 and TABLE 12; details: PDZ hAPXL, PDZ Domain 1
T5 construct: made in house; host or cells: E. coli (DH5alpha, BL21 or JM109)
Outline: (§5)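 Binding classes derive from A450 nm of bound biotin-tagged PL peptide. A score of 5 needs A450 above 4 in more than two repeats.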

[6] = molecular target: T6, PDZ protein (GST-PDZ fusion) (Homo sapiens, UniProt Q9NR12); assay: as above; details: PDZ ENIGMA, PDZ Domain 1
T6 construct: made in house; host or cells: E. coli (DH5alpha, BL21 or JM109)
Outline: as §5

[7] = molecular target: T7, PDZ protein (GST-PDZ fusion) (Homo sapiens, UniProt P55196); assay: as above; details: PDZ AF6, PDZ Domain 1
T7 construct: made in house; host or cells: E. coli (DH5alpha, BL21 or JM109)
Outline: as §5

[8] = test system: PDZ protein (GST-PDZ fusion); assay: as above; details: PDZ LIM Protein, PDZ Domain 1
Outline: as §5

[9] = molecular target: T8, PDZ protein (GST-PDZ fusion) (Homo sapiens, UniProt P50479); assay: as above; details: PDZ LIM RIL, PDZ Domain 1
T8 construct: made in house; host or cells: E. coli (DH5alpha, BL21 or JM109)
T8 sequence (P50479 1-330): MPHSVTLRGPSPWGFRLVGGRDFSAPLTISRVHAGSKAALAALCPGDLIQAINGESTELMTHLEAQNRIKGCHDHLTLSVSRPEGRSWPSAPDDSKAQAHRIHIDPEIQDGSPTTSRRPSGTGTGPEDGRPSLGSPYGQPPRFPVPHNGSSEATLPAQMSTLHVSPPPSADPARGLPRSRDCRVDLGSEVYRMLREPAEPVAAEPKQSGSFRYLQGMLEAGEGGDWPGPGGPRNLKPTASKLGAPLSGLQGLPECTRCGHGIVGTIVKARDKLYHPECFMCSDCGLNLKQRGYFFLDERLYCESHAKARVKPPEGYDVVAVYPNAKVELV
Outline: as §5

[10] = biotinylated 20-mer CLASP-2 20 uM
[11] = biotinylated 20-mer KV1.3 10 uM

T4 sequence (Q12959 224-546 limits assumed): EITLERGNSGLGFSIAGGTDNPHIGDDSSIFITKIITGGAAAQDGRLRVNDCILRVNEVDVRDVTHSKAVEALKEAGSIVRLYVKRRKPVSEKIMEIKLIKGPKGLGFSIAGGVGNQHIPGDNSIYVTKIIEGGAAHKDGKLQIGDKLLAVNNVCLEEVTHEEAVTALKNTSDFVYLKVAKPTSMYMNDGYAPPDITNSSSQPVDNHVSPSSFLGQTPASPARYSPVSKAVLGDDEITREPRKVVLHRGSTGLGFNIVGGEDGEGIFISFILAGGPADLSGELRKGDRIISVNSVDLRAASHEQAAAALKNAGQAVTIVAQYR
T3 sequence (P78352 58-398 limits assumed): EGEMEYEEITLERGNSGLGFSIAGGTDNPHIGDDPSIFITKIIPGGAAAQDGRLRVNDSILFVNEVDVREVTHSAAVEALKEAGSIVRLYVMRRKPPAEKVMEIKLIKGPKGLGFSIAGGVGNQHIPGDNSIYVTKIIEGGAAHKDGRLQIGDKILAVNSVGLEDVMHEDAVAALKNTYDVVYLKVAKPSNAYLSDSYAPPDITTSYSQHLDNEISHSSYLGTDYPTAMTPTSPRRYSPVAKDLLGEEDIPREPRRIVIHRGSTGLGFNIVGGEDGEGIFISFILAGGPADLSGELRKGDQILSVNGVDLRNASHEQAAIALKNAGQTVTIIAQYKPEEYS
T6 sequence (Q9NR12 whole entry, the tested form may be a part): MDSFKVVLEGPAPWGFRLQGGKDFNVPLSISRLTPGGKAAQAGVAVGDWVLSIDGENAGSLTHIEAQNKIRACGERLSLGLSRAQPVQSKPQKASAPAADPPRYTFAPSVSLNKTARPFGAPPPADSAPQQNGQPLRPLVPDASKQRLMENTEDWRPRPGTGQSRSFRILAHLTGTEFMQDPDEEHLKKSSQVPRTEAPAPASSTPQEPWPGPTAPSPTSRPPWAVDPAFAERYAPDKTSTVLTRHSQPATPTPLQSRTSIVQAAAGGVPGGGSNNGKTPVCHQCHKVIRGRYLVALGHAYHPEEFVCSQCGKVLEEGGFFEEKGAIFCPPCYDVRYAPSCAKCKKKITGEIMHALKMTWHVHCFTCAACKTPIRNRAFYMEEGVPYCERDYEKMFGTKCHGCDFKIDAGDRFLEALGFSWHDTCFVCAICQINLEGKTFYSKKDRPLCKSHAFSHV
T5 sequence (Q13796 whole entry, the tested form may be a part): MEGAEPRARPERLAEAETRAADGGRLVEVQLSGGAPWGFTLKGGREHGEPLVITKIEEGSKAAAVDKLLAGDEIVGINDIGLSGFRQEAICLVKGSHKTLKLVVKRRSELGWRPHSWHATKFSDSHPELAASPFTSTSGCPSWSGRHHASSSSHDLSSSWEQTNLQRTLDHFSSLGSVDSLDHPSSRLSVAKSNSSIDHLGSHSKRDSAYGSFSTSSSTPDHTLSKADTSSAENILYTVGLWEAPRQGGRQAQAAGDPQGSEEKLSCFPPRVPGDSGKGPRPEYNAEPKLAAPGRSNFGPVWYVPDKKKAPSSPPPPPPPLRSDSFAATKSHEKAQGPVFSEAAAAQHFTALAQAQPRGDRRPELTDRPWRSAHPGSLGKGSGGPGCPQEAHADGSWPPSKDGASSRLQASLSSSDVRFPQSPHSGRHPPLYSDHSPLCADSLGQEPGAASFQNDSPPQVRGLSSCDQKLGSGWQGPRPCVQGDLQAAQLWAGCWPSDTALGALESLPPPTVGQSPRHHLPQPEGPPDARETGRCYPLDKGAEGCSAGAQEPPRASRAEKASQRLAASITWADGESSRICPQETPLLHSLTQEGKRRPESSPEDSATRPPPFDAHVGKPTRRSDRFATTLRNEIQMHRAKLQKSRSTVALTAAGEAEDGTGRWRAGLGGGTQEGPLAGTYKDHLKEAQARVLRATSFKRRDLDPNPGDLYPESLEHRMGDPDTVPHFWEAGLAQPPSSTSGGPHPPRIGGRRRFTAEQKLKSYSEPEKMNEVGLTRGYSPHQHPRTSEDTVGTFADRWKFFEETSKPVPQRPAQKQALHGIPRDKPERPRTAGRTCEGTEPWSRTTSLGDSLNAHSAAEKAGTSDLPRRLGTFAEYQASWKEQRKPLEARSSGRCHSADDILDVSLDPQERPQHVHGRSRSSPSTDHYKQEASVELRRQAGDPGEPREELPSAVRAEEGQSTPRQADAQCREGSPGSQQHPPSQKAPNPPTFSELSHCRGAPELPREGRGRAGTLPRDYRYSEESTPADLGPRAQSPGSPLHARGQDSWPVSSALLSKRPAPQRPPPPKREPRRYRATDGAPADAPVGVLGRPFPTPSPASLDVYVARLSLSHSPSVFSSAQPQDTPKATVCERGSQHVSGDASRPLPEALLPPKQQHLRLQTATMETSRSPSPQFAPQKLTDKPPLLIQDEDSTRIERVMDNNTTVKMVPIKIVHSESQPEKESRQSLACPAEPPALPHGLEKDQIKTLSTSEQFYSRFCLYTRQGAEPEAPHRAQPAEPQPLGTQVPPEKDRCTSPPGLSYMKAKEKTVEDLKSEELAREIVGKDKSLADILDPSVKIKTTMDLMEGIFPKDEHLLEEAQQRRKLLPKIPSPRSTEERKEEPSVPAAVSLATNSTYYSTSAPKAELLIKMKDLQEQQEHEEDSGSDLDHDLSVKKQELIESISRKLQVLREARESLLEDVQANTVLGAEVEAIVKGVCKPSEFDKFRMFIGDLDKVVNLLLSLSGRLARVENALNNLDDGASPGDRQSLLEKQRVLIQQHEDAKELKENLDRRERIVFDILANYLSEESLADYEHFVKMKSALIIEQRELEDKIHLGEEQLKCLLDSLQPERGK
T7 sequence (P55196 whole entry, the tested form may be a part): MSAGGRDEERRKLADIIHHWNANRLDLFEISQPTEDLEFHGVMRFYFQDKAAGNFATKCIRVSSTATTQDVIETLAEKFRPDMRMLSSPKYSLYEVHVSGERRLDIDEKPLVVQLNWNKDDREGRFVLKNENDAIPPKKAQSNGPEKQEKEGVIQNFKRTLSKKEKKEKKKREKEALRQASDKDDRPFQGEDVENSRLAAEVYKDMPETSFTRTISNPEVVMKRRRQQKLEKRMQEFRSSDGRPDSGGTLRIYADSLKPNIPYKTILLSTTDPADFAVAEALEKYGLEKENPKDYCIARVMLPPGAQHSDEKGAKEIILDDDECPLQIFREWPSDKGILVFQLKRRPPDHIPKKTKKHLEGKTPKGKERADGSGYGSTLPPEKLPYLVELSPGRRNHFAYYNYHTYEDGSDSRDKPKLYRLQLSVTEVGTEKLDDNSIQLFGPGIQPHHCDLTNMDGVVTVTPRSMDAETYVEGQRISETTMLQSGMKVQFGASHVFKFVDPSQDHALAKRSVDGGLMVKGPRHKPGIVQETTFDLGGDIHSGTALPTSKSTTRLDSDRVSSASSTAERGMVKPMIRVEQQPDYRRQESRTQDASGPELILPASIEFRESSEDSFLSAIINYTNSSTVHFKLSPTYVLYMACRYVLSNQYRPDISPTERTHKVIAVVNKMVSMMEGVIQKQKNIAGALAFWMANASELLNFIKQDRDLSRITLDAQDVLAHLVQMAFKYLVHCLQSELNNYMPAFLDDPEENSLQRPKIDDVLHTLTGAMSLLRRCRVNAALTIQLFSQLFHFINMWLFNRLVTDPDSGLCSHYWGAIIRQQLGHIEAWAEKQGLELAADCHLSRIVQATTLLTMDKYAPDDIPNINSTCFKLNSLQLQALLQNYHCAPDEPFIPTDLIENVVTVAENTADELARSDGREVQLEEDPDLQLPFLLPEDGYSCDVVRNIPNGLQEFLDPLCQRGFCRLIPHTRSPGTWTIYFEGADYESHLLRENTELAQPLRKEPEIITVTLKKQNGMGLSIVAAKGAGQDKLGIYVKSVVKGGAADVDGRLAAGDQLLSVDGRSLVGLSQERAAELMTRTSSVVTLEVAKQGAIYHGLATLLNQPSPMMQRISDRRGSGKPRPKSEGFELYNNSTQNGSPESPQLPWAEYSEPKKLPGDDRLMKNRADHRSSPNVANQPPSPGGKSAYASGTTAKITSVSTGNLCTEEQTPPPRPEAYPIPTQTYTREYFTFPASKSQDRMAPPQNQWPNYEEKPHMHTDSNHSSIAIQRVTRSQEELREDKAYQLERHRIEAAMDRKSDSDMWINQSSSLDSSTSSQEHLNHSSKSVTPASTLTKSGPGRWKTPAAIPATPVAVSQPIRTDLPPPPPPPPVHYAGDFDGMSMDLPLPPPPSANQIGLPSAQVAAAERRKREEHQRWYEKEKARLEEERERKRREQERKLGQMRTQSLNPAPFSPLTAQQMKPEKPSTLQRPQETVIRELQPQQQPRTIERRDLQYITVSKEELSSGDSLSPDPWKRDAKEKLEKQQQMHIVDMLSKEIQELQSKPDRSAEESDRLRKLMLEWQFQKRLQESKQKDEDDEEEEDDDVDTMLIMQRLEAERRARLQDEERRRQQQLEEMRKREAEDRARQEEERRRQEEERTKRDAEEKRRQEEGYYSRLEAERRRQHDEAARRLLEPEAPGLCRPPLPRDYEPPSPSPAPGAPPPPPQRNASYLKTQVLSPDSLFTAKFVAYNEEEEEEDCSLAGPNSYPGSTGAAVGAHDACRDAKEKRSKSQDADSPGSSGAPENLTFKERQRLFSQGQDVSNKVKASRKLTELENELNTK

Compound: CNCCC=C1c2ccccc2CCc2ccccc21 [Nortryptilline, NORTRIPTYLINE HYDROCHLORIDE]
CHANGE IN OD: absorbance at 450 nm in presence of drug ([1]; OD in absence of drug 2.1, drug concentration per TABLE 11, read after 30 minutes): 2.1 to 0.5
antagonistic effect, binding relative to absence of drug ([1]; ZO-2 domain 1 and DNAM-1): 4.2 fold

concentration of unlabeled competitor it takes to compete for binding of Tax to TIP-1 (FIG. 2C) ([2]; unlabeled 8 amino acid CD95 competitor, 1 μM labeled Tax 20-mer): 100 to 500 µM
excess needed to interfere with the binding of Tax to TIP-1 ([2]; unlabeled CD95 8-mer versus labeled Tax): ~500 fold
% binding ([3]; biotinylated 20-mer CD46 20 uM): 100%
% binding ([3]; biotinylated 20-mer CD95 10 uM): 75%
% binding [3, 10]: 92%
% binding [3, 11]: 87%
% binding ([4]; biotinylated 20-mer CD46 20 uM): 110%
% binding ([4]; biotinylated 20-mer CD95 10 uM): 70%
% binding [4, 10]: 73%
% binding [4, 11]: 84%
reduction of binding of CLASP-2 and CD95 labeled ligand ([4]; 2.5 to 5-fold excess): approximately 30%
Compound: RNEIQSLV [CD95 8-mer, unlabeled peptide of the C-terminal 8 amino acids of CD95]

Classification [5]: 1 (A450 nm 0-1)
Classification [6]: 1 (A450 nm 0-1)
Compound: EVIGYIEKPGVETLEDSVF (Biotin-EVIGYIEKPGVETLEDSVF) [CDW125 (modified)]

Classification [7]: 2 (A450 nm 1-2)
Classification [5]: 1 (A450 nm 0-1)
Classification [6]: 2 (A450 nm 1-2)
Classification [9]: 1 (A450 nm 0-1)
Compound: YSATYSELEDPGEMSPPIDL (Biotin-YSATYSELEDPGEMSPPIDL) [FceRlb]
Classification [8]: 2 (A450 nm 1-2)
